The target of the experiment is Recombinant full-length His6-tagged DEG7 (Ser206Ala) (Arabidopsis thaliana). Kind of experiment: SEC.

Broadly, the stoichiometry N is a count of units in the complex or per binding partner.

“Recombinant full-length His6-tagged DEG7 (Ser206Ala) (enzyme)”: the stoichiometry N was 3.

For the origin of these results see publication PMC3194040.
